1 molecule from US20090203610A1, “METHODS OF TREATING OBESITY OR DIABETES USING NT-4/5” (RINAT NEUROSCIENCE CORPORATION, priority 2004, published 2009) can be followed below.

The test system of test [1] is db/db mice. The test can be described thus: Dose response of NT-4/5 on serum biomarkers of db/db mice (Example 2). It is filed as in vivo. Here is the method:
Db/db mice maintained as described in Example 1 were divided into five groups (groups 1-5). Group 1 (7 mice) were administered with vehicle (PBS). Group 2 (7 mice), group 3 (8 mice), group 4 (8 mice), group 5 (8 mice) were each administered with NT-4/5 at the doses of 2 mg/kg, 5 mg/kg, 10 mg/kg, and 20 mg/kg, respectively. Both the vehicle and NT-4/5 were administered to each group of the mice subcutaneously once daily for five days. One day before beginning the treatment (T0), blood samples were collected from the mice as described previously for the determination of baseline levels of serum biomarkers (glucose, triglyceride, and cholesterol). Similarly, at day 6 (T6), blood samples were collected for the determination of serum biomarker levels. The blood samples were treated in the same manner as described in Example 1.
Blood glucose, triglyceride, and cholesterol levels were determined as described in Example 1.

The subject of test [2] is db/db mice. The test can be described thus: Triglyceride after two weeks daily s.c. NT-4/5 in db/db mice (Example 2). The following applies: day 14; 2, 5, 10 or 20 mg/kg s.c. daily for two weeks. It is filed as in vivo. Here is the method: In another experiment, db/db mice were subcutaneously injected with vehicle (PBS) or NT-4/5 at 2 mg/kg, 5 mg/kg, 10 mg/kg, or 20 mg/kg daily for two weeks.

Test [3] has as its system NONcNZO-10 polygenic obese and diabetic mice. The test is described as follows: Body weight after intravenous NT-4/5 in NONcNZO-10 mice (Example 3). It is filed as in vivo. Particulars: i.v. 1 mg/kg. Here is the method:
Experiment was also performed on the same type of mice by intravenous injection of vehicle (PBS) and NT-4/5 (1 mg/kg) on day 1 and on day 5. About 5% to about 10% reduction of body weight was observed between NT-4/5 treated group and vehicle group between day 2 and day 15.

The target in another test is T1, human TrkB (Homo sapiens, UniProt Q16620).
T1 construct: expressed in transfected cells
T1 sequence (Q16620 32-822): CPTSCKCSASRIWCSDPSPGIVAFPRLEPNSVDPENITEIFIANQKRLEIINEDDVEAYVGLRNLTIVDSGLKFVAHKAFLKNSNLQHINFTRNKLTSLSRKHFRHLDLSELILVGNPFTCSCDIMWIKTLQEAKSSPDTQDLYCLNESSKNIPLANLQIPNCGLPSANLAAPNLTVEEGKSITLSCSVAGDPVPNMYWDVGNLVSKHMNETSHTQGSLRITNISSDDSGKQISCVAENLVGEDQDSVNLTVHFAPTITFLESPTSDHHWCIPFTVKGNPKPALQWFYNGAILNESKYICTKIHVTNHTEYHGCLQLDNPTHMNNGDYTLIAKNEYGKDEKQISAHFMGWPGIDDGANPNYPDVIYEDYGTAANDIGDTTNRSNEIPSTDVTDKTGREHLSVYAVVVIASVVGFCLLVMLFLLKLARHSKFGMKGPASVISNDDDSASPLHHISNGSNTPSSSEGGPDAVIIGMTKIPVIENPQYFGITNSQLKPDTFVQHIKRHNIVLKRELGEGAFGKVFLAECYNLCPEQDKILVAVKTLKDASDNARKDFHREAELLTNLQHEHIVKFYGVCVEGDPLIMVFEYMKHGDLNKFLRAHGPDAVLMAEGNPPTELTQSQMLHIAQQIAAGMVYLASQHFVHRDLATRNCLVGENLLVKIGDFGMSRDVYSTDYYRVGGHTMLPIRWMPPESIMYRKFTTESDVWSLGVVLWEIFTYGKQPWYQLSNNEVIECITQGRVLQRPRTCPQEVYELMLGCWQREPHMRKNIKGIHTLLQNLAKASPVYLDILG
The test can be described thus: Receptor tyrosine phosphorylation (KIRA) in TrkB expressing cell line. The format is cell-based.

The next test has as its system DIO mice. The test can be described thus: Weekly intravenous pegylated G1S NT-4/5 versus WT NT-4/5 on body weight and food intake in DIO mice (Example 8). The format is in vivo. The source says: Test animals: Mice with diet induced obesity (DIO) were used in this study. 29 male C57BL/6J mice were weaned at 4 weeks of age. Immediately after weaning, they were put on 58% high fat diet (D12331i, Research Diet) through out the study. The DIO mice at 13 weeks of age weighing in the range of 28-40 g were used in this study.
Administration of NT-4/5 and pegylated NT-4/5: NT-4/5 was obtained from Genentech Inc. or produced as described in U.S. Pat. No. 6,184,360. Pegylated NT-4/5 was produced as follows: A mutation was introduced by changing the glycine 1 position of mature human NT-4/5 sequence to serine, resulting in a mutant form of NT-4/5 (NT4-G1S). NT4-G1S protein was expressed in E. coli, solubilized, extracted, purified and refolded as described above. Refolded NT4-G1S was dialyzed into 50 mM sodium phosphate buffer at pH 6.8 and treated with 1.5 molar excess sodium meta-periodate for 10 minutes to oxidize the N-terminal serine (or threonine) residue to an aldehyde. Remaining periodate was removed by dialysis against 30 mM sodium acetate at pH 4.5. The exact concentration of NT4-G1S was determined and a 2 to 4 fold molar excess of 20K-m-PEG-HZ (methoxy polyethylene glycol hydrazide) was added. The reaction was incubated at 37° C. for several days with gentle agitation. Unconjugated PEG, pegylated NT4-G1S and non-pegylated NT4-G1S were separated via ion exchange or size exclusion chromatography.
The mice were divided into 3 groups of equivalent body weight and baseline blood glucose distribution (7-8 mice per group). Each group received four weekly intravenous doses (on day 1, 8, 15 and 22) of either vehicle, 2 mg/kg of NT-4/5 or 2 mg/kg of pegylated G1S NT-4/5 respectively. Body weight and food intake were monitored 5 days per week through out the entire study.

A further test relates to db/db female mice. The test is described as follows: Survival time in db/db mice (Example 12). It is filed as in vivo. Here is the method: Db/db female mice maintained as described in Example 1 were divided into two groups. Group 1 (8 mice) were administered with vehicle (PBS). Group 2 (6 mice) was each administered with NT-4/5 at the doses of 20 mg/kg. Both the vehicle and NT-4/5 were administered subcutaneously once daily from day 1 to day 26, and were then followed up for survival. Mortality is defined by the body wasting below 60% of the starting body weight (i.e., from about 40 g down to about 24 g) or natural death, whichever happened first.

[4] abbreviates: Day 0 (Baseline), 2 mg/kg group.
Where [5] appears, read: Day 0 (Baseline), 5 mg/kg group.
[6] abbreviates: Day 0 (Baseline), 10 mg/kg group.
Where [7] appears, read: Day 0 (Baseline), 20 mg/kg group.

B1: NT-4/5: mature human neurotrophin-4/5 (SEQ ID NO:1), obtained from Genentech or produced in E. coli (protein, listed as Homo sapiens)
chain: GVSETAPASRRGELAVCDAVSGWVTDRRTAVDLRGREVEVLGEVPAAGGSPLRQYFFETRCKADNAEEGGPGAGGGGCRGVDRRHWVSECKAKQSYVRALTADAQGRVGWRWIRIDTACVCTLLSRTGRA
Turning to B1, the Cholesterol in the test with db/db mice [1] (setting [4]) turned out to be 86.25 mg/dL; in the test with db/db mice [1] (setting [5]), 95.88 mg/dL; in the test on db/db mice [1] (setting [6]), 90.00 mg/dL; with db/db mice [1] (setting [7]), 98.38 mg/dL; in the test on db/db mice [1] (Day 6, 2 mg/kg s.c. once daily for five days), 111.43 mg/dL; in the test with db/db mice [1] (Day 6, 5 mg/kg s.c. once daily for five days), 113.25 mg/dL. Further, the Cholesterol is listed as 108.75 mg/dL with db/db mice [1] (Day 6, 10 mg/kg s.c. once daily for five days) and 112.88 mg/dL in the test on db/db mice [1] (Day 6, 20 mg/kg s.c. once daily for five days). Moreover, the Glucose with db/db mice [1] (setting [4]) is 544.50 mg/dL; in the test with db/db mice [1] (setting [5]) it was 563.00 mg/dL; with db/db mice [1] (setting [6]), 538.00 mg/dL; in the test on db/db mice [1] (setting [7]), 544.88 mg/dL. For the same molecule, the Triglyceride in the test with db/db mice [1] (setting [4]) is 206.13 mg/dL; with db/db mice [1] (setting [5]), 217.13 mg/dL; in the test with db/db mice [1] (setting [6]), 197.50 mg/dL; in the test with db/db mice [1] (setting [7]), 253.50 mg/dL. Further, the “blood cholesterol levels” value in the test with db/db mice [1] (day 6, 2-20 mg/kg) was “remained at the baseline level”. Besides, the “triglyceride level as compared to vehicle” value with db/db mice [2] is reported as “Significant reduction”. Besides, the “time body weight reduction maintained after 2 staggered intravenous doses” value in test [3] is recorded as “up to 10 days”. Besides, the “receptor tyrosine phosphorylation of TrkB-expressing cell line” value with human TrkB is “increased receptor tyrosine phosphorylation”. The “body weight, pairwise difference with the vehicle control group” value in the test with DIO mice (2 mg/kg i.v. on day 1, 8, 15, 22, Bonferroni posttests) is on record as “significant pairwise differences”. The “body weight with long term weekly dosing” value with DIO mice (2 mg/kg i.v. weekly) is “more effective in maintaining lower body weight”. The “median length of survival” value in the test on db/db female mice (20 mg/kg s.c. daily day 1 to 26, n=6) is recorded as 257 days. Also, the “difference in median survival versus vehicle control” value in the test with db/db female mice (vehicle 192.5 days, not statistically significant (P=0.1331)) is reported as 65 days.
